# Laboratory results from US20220409751A1 (NORTHSTAR MEDICAL TECHNOLOGIES, published 2022).
# Legend:
# [1] = molecular target: urokinase plasminogen activator receptor (uPAR) (UniProt Q03405); assay: direct binding assay
# soluble uPAR (suPAR) = molecular target: T1, soluble uPAR (suPAR) (UniProt Q03405 23-305, limits assumed); assay: SPR (Biacore 2000), antibody captured on protein A/G surface, suPAR as analyte, 25 C, 1:1 Langmuir fit
# T1 construct: Analyte in the Biacore capture assay
# Description: The HE™ variants were diluted to 1 μg/mL and injected over a protein A/G surface. Antibody injections were optimized to produce antibody densities of 100-200 RU.
# Six serial 3-fold dilutions of soluble uPAR (suPAR) were prepared in running buffer (PBS), and each dilution was injected in triplicate in random order at 25° C. Buffer injections were evenly distributed throughout the run. The sample injections were double-referenced against the blank flow cells and buffer injections to correct for any bulk shift or non-specific binding. Data were analyzed with BiaEvaluation software from Biacore®. Sensorgrams were fit utilizing a 1:1 Langmuir model.
# T1 sequence (Q03405 23-305 limits assumed): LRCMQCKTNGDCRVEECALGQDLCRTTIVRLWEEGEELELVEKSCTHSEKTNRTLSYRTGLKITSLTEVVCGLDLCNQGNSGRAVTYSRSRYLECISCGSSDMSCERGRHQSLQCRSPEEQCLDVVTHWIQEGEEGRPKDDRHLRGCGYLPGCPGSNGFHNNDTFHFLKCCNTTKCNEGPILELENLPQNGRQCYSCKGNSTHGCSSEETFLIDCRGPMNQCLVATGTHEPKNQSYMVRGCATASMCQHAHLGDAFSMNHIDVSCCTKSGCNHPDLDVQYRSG
# urokinase plasminogen activator receptor (uPAR), sequence (Q03405 23-305 limits assumed): as above
molecule,measurement,setting,value
mouse monoclonal antibody ATN-658,Kd,[1],1 nM
"HE ™ ATN-1 (antibody, IgG1, V domains shown, V regions cloned into transient expression vectors with human gamma-1 and kappa constant region modules (IgG1, kappa); made in HEK293E cells) VH: EVQLVQSGPEVVKTGASVKISCKASGYSFTSYYMHWVKQAHGQGLEWIGEINPYNGGASYNQKIKGRATFTVDTSTRTAYMEFSSLRSEDTAVYYCARSIYGHSVLDYWGQGTLVTVSS VL: DVVMTQSPLSLSVTIGEPASISCRSSQSLLDSDGKTYLNWLLQKPGQSPKRLIYLVSKRDSGVPDRFSGSGSGTDFTLKISRVEAEDVGVYYCWQGTHFPLTFGQGTKLEIK",Kd,soluble uPAR (suPAR),0.28 nM
"HE ™ ATN-4 (renamed MNPR-101) (antibody, human IgG1, kappa, V domains shown, IgG1 kappa; In the Biacore assay the transiently expressed (HEK293E), unconjugated antibody was used; also called mAb MNPR-101; humanized mAb MNPR-101) VH: EVQLVQSGPEVKKTGASVKISCKASGYSFTSYYMHWVRQAHGQGLEWIGEINPYNGGASYNQKIQGRATFTVDTSTSTAYMEFSSLRSEDTAVYYCARSIYGHSVLDYWGQGTLVTVSS VL: DVVMTQSPLSLSVTIGEPASISCRSSQSLLDSDGKTYLNWLLQKPGQSPQRLIYLVSKRDSGVPDRFSGSGSGTDFTLKISRVEAEDVGVYYCWQGTHFPLTFGQGTKLEIKR",Kd,soluble uPAR (suPAR),0.39 nM
"HE ™ ATN-3 (antibody, IgG1, V domains shown, Human gamma-1 and kappa constant region modules (IgG1, kappa); made in HEK293E cells) VH: EVQLVQSGPEVKKTGASVKISCKASGYSFTSYYMHWVRQAHGQGLEWIGEINPYNGGASYNQKIQGRATFTVDTSTSTAYMEFSSLRSEDTAVYYCARSIYGHSVLDYWGQGTLVTVSS VL: DVVMTQSPLSLSVTIGEPASISCRSSQSLLDSDGKTYLNWLLQKPGQSPKRLIYLVSKRDSGVPDRFSGSGSGTDFTLKISRVEAEDVGVYYCWQGTHFPLTFGQGTKLEIK",Kd,soluble uPAR (suPAR),0.28 nM
"HE ™ ATN-2 (antibody, IgG1, V domains shown, Human gamma-1 and kappa constant region modules (IgG1, kappa); made in HEK293E cells) VH: EVQLVQSGPEVVKTGASVKISCKASGYSFTSYYMHWVKQAHGQGLEWIGEINPYNGGASYNQKIKGRATFTVDTSTRTAYMEFSSLRSEDTAVYYCARSIYGHSVLDYWGQGTLVTVSS VL: DVVMTQSPLSLSVTIGEPASISCRSSQSLLDSDGKTYLNWLLQKPGQSPQRLIYLVSKRDSGVPDRFSGSGSGTDFTLKISRVEAEDVGVYYCWQGTHFPLTFGQGTKLEIK",Kd,soluble uPAR (suPAR),0.38 nM
